This note sets out measurements from patent US20180258153A1 (Novo Nordisk, published 2018).

Starred links: 1 amine or outer side, 2 acyl side, 3 side chain; linkers in the order of their positions; H or OH if unused. Non-standard residues stand in square brackets, D forms with d. Groups on a side chain read outwards from the residue. No end group written: not given here. *: point of attachment. C20 diacid = O=C(O)CCCCCCCCCCCCCCCCCCC(=O)*; γGlu = O=C(O)[C@H](CCC(=O)[*:2])N[*:1]; Desaminohistidyl = O=C(CCc1c[nH]cn1)*; Trx = NC[C@H]1CC[C@H](C(=O)O)CC1; AEEA = NCCOCCOCC(=O)O; Aib = CC(C)(N)C(=O)O

The target in assay [1] is T1, human GLP-1 receptor (human, UniProt P43220 24-463).
T1 construct: whole, on cells
As to the kind of experiment: SPA competition, displacement of 125I-GLP-1(7-36)NH2 from BHK membranes with human GLP-1 receptor; high HSA (2.0%). For orientation: Displacement assays read how much labelled ligand stays bound in the presence of the test substance.
Description: (§1) For the receptor binding assay in the presence of low HSA (0.005%) 50 μl of the assay buffer was added to each well of an assay plate. […] For the receptor binding assay in the presence of high HSA (2%) 50 μl of the 8% albumin stock was added to each well of an assay plate. […] Cell membrane aliquots were thawed and diluted to their working concentration. Fifty μl were added to each well in the assay plate. […] WGA SPA beads were suspended in assay buffer at 20 mg/ml. The suspension was diluted to 10 mg/ml in assay buffer just prior to addition to the assay plate. Fifty μl were added to each well in the assay plate. […] A 25 μl aliquot was reserved for measuring total counts/well. […] The assay plate was incubated for 2 h at 30° C. […] The assay plate was centrifuged for 10 min. […] The assay plate was read in a Packard TopCount NXT instrument.
(§2) The data from the TopCount instrument were transferred to GraphPad Prism software. Individual replicates were analysed using non-linear regression.

Assay [2] addresses T1, human GLP-1 receptor. Nature of the assay: SPA competition, displacement of 125I-GLP-1(7-36)NH2 from BHK membranes with human GLP-1 receptor; low HSA (max. 0.001%).
Description: as §1, §2
Assay [3] has as its target T1, human GLP-1 receptor. As to the kind of experiment: cell-based or functional assay.

B1: GLP-1 derivative of Example 6 (peptide)
peptide: [Desaminohistidyl][Aib]EGTFTSDVSSYLEEQAAREFIAWLVRGRGGK([AEEA-AEEA-AEEA-AEEA-Lys-code γGlu-Trx-C20 diacid),(γGlu-Trx-C20 diacid])
modifications: also: branched side chain on Lys39: two identical arms on eps-Lys(Bis)
notes: also called Chem. 26; [Imp7,Aib8,Glu22,Arg26,Arg34]-GLP-1-(7-37)-peptidyl-Gly-N{Epsilon}-acylated Lys
By IC50 is commonly meant the point on the concentration scale where inhibition reaches its midpoint. On to B1, for which the IC50 is 140 nM in the assay with human GLP-1 receptor [1] and 1 nM in the assay with human GLP-1 receptor [2]. In addition, in the assay with human GLP-1 receptor [3], the “EC50 (pM), in vitro potency, CRE luciferase reporter in BHK cells expressing the human GLP-1 receptor” value (shortened to “EC50 (pM), in vitro potency”) stood at 150 pM.

B2: GLP-1 derivative of Example 19 (peptide)
peptide: H[Aib]EGTFTSDVSSYLEEQAAREFIAWLVRGRGK
modifications: not fully specified (residue 32)
notes: also called Chem. 39; N{Alpha}([Aib8,Glu22,Arg26,Arg34]-GLP-1-(7-37)-peptidyl)-N{Epsilon}-acylated Lys
For the molecule B2, the concentration for half-maximal inhibition (IC50) with human GLP-1 receptor [1] amounted to 34 nM; with human GLP-1 receptor [2], 0.69 nM. For the same molecule, the “EC50 (pM), in vitro potency” value in the assay with human GLP-1 receptor [3] was found to be 71 pM.

B3: GLP-1 derivative of Example 7 (peptide)
peptide: [Desaminohistidyl][Aib]EGTFTSDVSSYLEEQAAREFIAWLVRGRGGK([AEEA-AEEA-Lys-AEEA-AEEA-γGlu-Trx-C20 diacid),(Ado-AEEA-γGlu-Trx-C20 diacid])
modifications: also: branched side chain on Lys39: two identical arms on eps-Lys(Bis)
notes: also called Chem. 27; [Imp7,Aib8,Glu22,Arg26,Arg34]-GLP-1-(7-37)-peptidyl-Gly-N{Epsilon}-acylated Lys
Regarding B3, the results for the IC50 with human GLP-1 receptor [1] and in the assay with human GLP-1 receptor [2] were 54 nM and 0.57 nM, respectively. In addition, in the assay with human GLP-1 receptor [3], the “EC50 (pM), in vitro potency” value was 79 pM.

B4: GLP-1 derivative of Example 1 (peptide)
peptide: HXEGTFTSDVSSYLEEQAAREFIAWLVRGRK
modifications: not fully specified; Aib at position 8 (GLP-1 numbering); epsilon-amino of Lys37 acylated with branched side chain: Pre-linker Ado; Branched linker eps-Lys(Bis); two Post-linkers Trx-gGlu-2xAdo, each carrying a C20 diacid Protractor
notes: also called Chem. 21; N{Epsilon-37}-acylated [Aib8,Glu22,Arg26,Arg34,Lys37]-GLP-1-(7-37)-peptide
In the case of B4, the IC50 with human GLP-1 receptor [1] is 140 nM. For the same molecule, in the assay with human GLP-1 receptor [3], the “EC50 (pM), in vitro potency” value worked out at 77 pM.

B5: GLP-1 derivative of Example 4 (peptide)
peptide: HXEGTFTSDVSSYLEEQAAREFIAWLVRGRK
modifications: not fully specified; Aib at position 8 (GLP-1 numbering); epsilon-amino of Lys37 acylated with branched side chain: Pre-linker dPEG12; Branched linker eps-Lys(Bis); two Post-linkers Trx-gGlu, each carrying a C20 diacid Protractor
notes: also called Chem. 24; N{Epsilon-37}-acylated [Aib8,Glu22,Arg26,Arg34,Lys37]-GLP-1-(7-37)-peptide
B5: the IC50 with human GLP-1 receptor [1] amounted to 51 nM; in the assay with human GLP-1 receptor [2], 0.78 nM. In the assay with human GLP-1 receptor [3], the “EC50 (pM), in vitro potency” value turned out to be 110 pM.

B6: GLP-1 derivative of Example 14 (peptide)
peptide: HXEGTFTSDVSSYLEEQAAREFIAWLVRGRK
modifications: not fully specified; Aib at position 8 (GLP-1 numbering); epsilon-amino of Lys37 acylated with branched side chain: Pre-linker 2xAdo; Branched linker eps-Lys(Bis); two Post-linkers Trx-gGlu-4xAdo, each carrying a C20 diacid Protractor
notes: also called Chem. 34; N{Epsilon-37}-acylated [Aib8,Glu22,Arg26,Arg34,Lys37]-GLP-1-(7-37)-peptide
In the case of B6, the IC50 is 27 nM in the assay with human GLP-1 receptor [1] and 0.42 nM with human GLP-1 receptor [2]. For the same molecule, the “EC50 (pM), in vitro potency” value in the assay with human GLP-1 receptor [3] came to 19 pM.

B7: GLP-1 derivative of Example 12 (peptide)
peptide: HXEGTFTSDVSSYLEEQAAREFIAWLVRGRK
modifications: Aib at position 8 (GLP-1 numbering); epsilon-amino of Lys37 acylated with branched side chain: Pre-linker 6xAdo; Branched linker eps-Lys(Bis); two Post-linkers Trx-gGlu, each carrying a C20 diacid Protractor
notes: also called Chem. 32; N{Epsilon-37}-acylated [Aib8,Glu22,Arg26,Arg34,Lys37]-GLP-1-(7-37)-peptide
Take B7: the 50% inhibitory concentration (IC50) is 17 nM with human GLP-1 receptor [1] and 0.63 nM with human GLP-1 receptor [2]. For the same molecule, in the assay with human GLP-1 receptor [3], the “EC50 (pM), in vitro potency” value came out at 57 pM.

B8: GLP-1 derivative of Example 11 (peptide)
peptide: HXEGTFTSDVSSYLEEQAAREFIAWLVRGRK
modifications: Aib at position 8 (GLP-1 numbering); epsilon-amino of Lys37 acylated with branched side chain: Pre-linker 2xAdo; Branched linker eps-Lys(Bis); two Post-linkers Trx-gGlu, each carrying a C20 diacid Protractor
notes: also called Chem. 31; N{Epsilon-37}-acylated [Aib8,Glu22,Arg26,Arg34,Lys37]-GLP-1-(7-37)-peptide
Consider B8, for which the half-maximal inhibitory concentration (IC50) amounted to 150 nM in the assay with human GLP-1 receptor [1] and 1.5 nM with human GLP-1 receptor [2]. Moreover, the “EC50 (pM), in vitro potency” value in the assay with human GLP-1 receptor [3] was 130 pM.

B9: GLP-1 derivative of Example 8 (peptide)
peptide: HXEGTFTSDVSSYLEEQAAREFIAWLVRGRK
modifications: Aib at position 8 (GLP-1 numbering); epsilon-amino of Lys37 acylated with branched side chain: Pre-linker 4xAdo; Branched linker eps-Lys(Bis); two Post-linkers Trx-gGlu, each carrying a C20 diacid Protractor
notes: also called Chem. 28; N{Epsilon-37}-acylated [Aib8,Glu22,Arg26,Arg34,Lys37]-GLP-1-(7-37)-peptide
In the case of B9, the IC50 in the assay with human GLP-1 receptor [1] stood at 45 nM; with human GLP-1 receptor [2], 1.1 nM. The “EC50 (pM), in vitro potency” value in the assay with human GLP-1 receptor [3] amounted to 72 pM.

B10: GLP-1 derivative of Example 2 (peptide)
peptide: HXEGTFTSDVSSYLEEQAAREFIAWLVRGRK
modifications: not fully specified; Aib at position 8 (GLP-1 numbering); epsilon-amino of Lys37 acylated with branched side chain: Pre-linker 2xAdo; Branched linker eps-Lys(Bis); two Post-linkers Trx-gGlu-2xAdo, each carrying a C20 diacid Protractor
notes: also called Chem. 22; N{Epsilon-37}-acylated [Aib8,Glu22,Arg26,Arg34,Lys37]-GLP-1-(7-37)-peptide
As for B10, the IC50 in the assay with human GLP-1 receptor [1] amounted to 49 nM; in the assay with human GLP-1 receptor [2], 0.56 nM. For the same molecule, the “EC50 (pM), in vitro potency” value with human GLP-1 receptor [3] is 70 pM.
